Experimental data reported in patent US20110165143A1, “MODULATION OF CASPASES AND THERAPEUTICAL APPLICATIONS” (The Regents of the University of Colorado, a body corporate, priority 2010, published 2011).
Peptide text beside a SMILES is read from it. * marks the point of attachment. Cbz = O=C(OCc1ccccc1)*; CH2F = FC*

Tests used:
4T1Fluc cells [1] = test: Growth of Fluc-labeled tumor cells seeded onto dying feeder cells killed by cytotoxic treatment; format: cell-based, mouse; conditions: dying feeder cells killed by a treatment other than radiation
4T1Fluc cells [2] = test: Growth of 4T1Fluc tumor cells plated with lethally irradiated NIH3T3 cells, bioluminescence imaging; format: cell-based, mouse; conditions: about 1000 4T1Fluc cells plated with lethally irradiated NIH3T3 cells plus inhibitor (FIG. 4)
Protocol: FIG. 4 is a graph showing the effect of a caspase inhibitor z-VAD-fmk on 4T1Fluc tumor cell growth when plated with lethally irradiated NIH3T3 cells. About 1000 4T1Fluc cells were plated either alone, with non-irradiated NIH3T3 cells, or with lethally irradiated NIH3T3 cells plus a pan-caspase inhibitor z-VAD-fmk.
For imaging luciferase, the IVIS200 instrument from Caliper Life Sciences (Hopkinton, Mass.) was used. For tissue cultured cells, luciferase signal was imaged by adding PBS or colorless OptiMEM medium (Invitrogen, Carlsbad, Calif.) with D-luciferin (Caliper Life Sciences, Hopkinton, Mass.) at a concentration of 0.15 mg/ml. The cells were imaged at a set time point (e.g., 10 minutes) after the administration of D-luciferin. This allowed the signals from different samples to be compared. After images were taken, the manufacturer supplied software was used to process the images for quantitative data.
In order to rule out the possibility that caspase 3 mediates its growth-promoting function through a non-proteolytic mechanism, experiments were conducted using a pan-caspase inhibitor z-VAD-fmk to treat irradiated cells. […] A further, more definitive confirmation came from experiments where a dominant-negative version of caspase 3 was stably transduced into 4T1 cells. The dominant-negative caspase 3 (DN-casp3) differs with wild type caspase 3 in only one amino acid (C163A). […]

IMR90 cells = test: iPSC induction from IMR90 fibroblasts transduced with transcription factor cocktails; format: cell-based, human; conditions: for increase in frequency of OSNL-induced iPSC formation: IMR90 cells; for suppression / reduction in the frequency of iPSC induction: IMR90 cells stably transduced with the agent
From the text: The caspase reporters were transduced into human IMR90 fibroblasts via recombinant lentivirus vectors. After puromycin selection to ensure stable integration of the reporters, the iPSC reprogramming process was initiated by infecting caspase reporter-transduced IMR90 cells with recombinant lentivirus vectors carrying 4 transcription factors (Oct-4, Sox2, Nanog, and Lin28, or OSNL in abbreviation) that are known to induce iPSC formation. To avoid the use of myc, which is known to induce caspase activation and might confound the results, the OSNL protocol was chosen because it was shown not to be essential for iPSC induction.
In order to determine whether the observed caspases 3 and 8 activation had any functional relevance in iPSC induction, down-regulation of caspase activities in OSNL-transduced cells was attempted. In the initial experiment, CrmA was we stably transduced through lentiviral vectors, a cow pox virus protein known to suppress caspases 1 and 8 activities, into IMR90 cells. […] This was a very surprising result because logically one would expect that inhibiting caspase activation would lead to increased iPSC generation because of reduced cell death.
Because CrmA inhibits both caspases 1 and 8, more specific approaches were used to determine which caspase was involved. First, a siRNA-based knockdown approach was used. In this approach, lentiviral vectors encoding either caspase 1- or caspase 8-targeted shRNA was used to infect IMR90 cells. After selecting for cells with stable shRNA knockdown (as verified by western blot analysis), they were infected with OSNL lentivector cocktail.
To provide further proof that the cleavage activities of caspases 3 and 8 are necessary for iPSC formation, lentiviral vectors encoding dominant-negative forms of caspases 3 and 8 were constructed. The dominant negative form of human caspase 8 gene (casp8-DN) encodes a virtually identical protein as the wild type except a single amino acid change (i.e. C360A), which disables its catalytic proteolytic function. This dominant negative form was cloned into a recombinant lentiviral vector. Similarly, the dominant negative form of caspase 3 (Casp3-DN), which contains a single mutation (C163A) that disables its proteolytic function, was also cloned into a lentiviral vector.
When IMR90 cells stably transduced with a lentiviral vector encoding casp8-DN were infected with the OSNL lentiviral cocktail, no iPSC induction process was observed.

Fluc-labeled 4T1 cells = test: In vivo tumor growth from a small number of subcutaneously injected Fluc-labeled 4T1 cells; parameters: species or system mice; conditions: about 1000 subcutaneously injected Fluc-labeled 4T1 cells
Protocol: Growth of Fluc-labeled tumor cells in vivo was followed through non-invasive bioluminescence imaging using the IVIS200 instrument (Caliper Life Sciences, Hopkinton, Mass.). Mice to be imaged were injected with 150 mg/kg of D-luciferin (obtained from Caliper Life Sciences) intraperitoneally in 200 μl of PBS and then anesthetized with continuous flow of isofluorane. Imaging of the mice was carried out 10 minutes later. The time between injection and imaging was kept constant among different batches of mice.
Different approaches were used to establish tumor growth than traditionally adopted by other studies. In most of the studies, only a very small number of Fluc-labeled tumor cells (500-1000 cells each) were injected either alone or together with other unlabeled cells (either tumor cells or fibroblast cells) that were either irradiated or un-irradiated. Tumor growth in these cells was monitored through the quantification of bioluminescence signals emitted from labeled tumor cells by using the IVIS200 instrument following manufacturer's instructions.
As PGE2 had been implicated as a regulator of tumor growth, its effect on in vivo tumor growth was evaluated from a small number of Fluc-labeled 4T1 cells.

COc1cc([C@@H]2c3cc4c(cc3[C@@H](O[C@@H]3O[C@@H]5CO[C@@H](C)O[C@H]5[C@H](O)[C@H]3O)[C@H]3COC(=O)[C@H]23)OCO4)cc(OC)c1O [etoposide]
growth-enhancing function conferred on dying cells by the cytotoxic treatment (4T1Fluc cells [1]): engender significant growth-enhancing functions to dying cells

COC(=O)C[C@H](NC(=O)[C@H](C)NC(=O)[C@@H](NC(=O)OCc1ccccc1)C(C)C)C(=O)CF [z-VAD-fmk] (Cbz-Val-Ala-Asp(OMe)-CH2F)
effect on growth-promoting properties of irradiated cells towards 4T1Fluc tumor cell growth (4T1Fluc cells [2]): eliminated the growth-promoting properties of irradiated cells

E7: human papilloma virus type 16 E7 protein, known to inhibit Rb function, co-transduced with OSNL
increase in frequency of OSNL-induced iPSC formation (IMR90 cells): ~5 fold

CCCCC[C@H](O)/C=C/[C@H]1[C@H](O)CC(=O)[C@@H]1C/C=C\CCCC(=O)O [PGE2, prostaglandin E2]
effect on in vivo tumor growth (Fluc-labeled 4T1 cells): significantly stimulate tumor growth

B1: casp8-DN: dominant negative form of human caspase 8 (C360A), lentiviral vector encoded (protein, UniProt Q14790 1-479, looked up, variant C360A)
chain: MDFSRNLYDIGEQLDSEDLASLKFLSLDYIPQRKQEPIKDALMLFQRLQEKRMLEESNLSFLKELLFRINRLDLLITYLNTRKEEMERELQTPGRAQISAYRVMLYQISEEVSRSELRSFKFLLQEEISKCKLDDDMNLLDIFIEMEKRVILGEGKLDILKRVCAQINKSLLKIINDYEEFSKERSSSLEGSPDEFSNGEELCGVMTISDSPREQDSESQTLDKVYQMKSKPRGYCLIINNHNFAKAREKVPKLHSIRDRNGTHLDAGALTTTFEELHFEIKPHDDCTVEQIYEILKIYQLMDHSNMDCFICCILSHGDKGIIYGTDGQEAPIYELTSQFTGLKCPSLAGKPKVFFIQAAQGDNYQKGIPVETDSEEQPYLEMDLSSPQTRYIPDEADFLLGMATVNNCVSYRNPAEGTWYIQSLCQSLRERCPRGDDILTILTEVNYEVSNKDDKKNMGKQMPQPTFTLRKKLVFPSD
modifications: full-length lentiviral vector encoded
notes: dominant negative form of human caspase 8 (C360A), lentiviral vector encoded
iPSC clones observed (IMR90 cells; OSNL lentiviral cocktail, after 25 days of culture, wild type IMR90 around 550 clones/5×10^5 cells): No iPSC clones were observed
suppression of iPSC induction (IMR90 cells; transduced together with OSKM): over 95%

B2: Rb: human Rb gene over-expressed from a lentiviral expression vector (protein, UniProt P06400 2-928, looked up)
Retinoblastoma-associated …: PPKTPRKTAATAAAAAAEPPAPPPPPPPEEDPEQDSGPEDLPLVRLEFEETEEPDFTALCQKLKIPDHVRERAWLTWEKVSSVDGVLGGYIQKKKELWGICIFIAAVDLDEMSFTFTELQKNIEISVHKFFNLLKEIDTSTKVDNAMSRLLKKYDVLFALFSKLERTCELIYLTQPSSSISTEINSALVLKVSWITFLLAKGEVLQMEDDLVISFQLMLCVLDYFIKLSPPMLLKEPYKTAVIPINGSPRTPRRGQNRSARIAKQLENDTRIIEVLCKEHECNIDEVKNVYFKNFIPFMNSLGLVTSNGLPEVENLSKRYEEIYLKNKDLDARLFLDHDKTLQTDSIDSFETQRTPRKSNLDEEVNVIPPHTPVRTVMNTIQQLMMILNSASDQPSENLISYFNNCTVNPKESILKRVKDIGYIFKEKFAKAVGQGCVEIGSQRYKLGVRLYYRVMESMLKSEEERLSIQNFSKLLNDNIFHMSLLACALEVVMATYSRSTSQNLDSGTDLSFPWILNVLNLKAFDFYKVIESFIKAEGNLTREMIKHLERCEHRIMESLAWLSDSPLFDLIKQSKDREGPTDHLESACPLNLPLQNNHTAADMYLSPVRSPKKKGSTTRVNSTANAETQATSAFQTQKPLKSTSLSLFYKKVYRLAYLRLNTLCERLLSEHPELEHIIWTLFQHTLQNEYELMRDRHLDQIMMCSMYGICKVKNIDLKFKIIVTAYKDLPHAVQETFKRVLIKEEEYDSIIVFYNSVFMQRLKTNILQYASTRPPTLSPIPHIPRSPYKFPSSPLRIPGGNIYISPLKSPYKISEGLPTPTKMTPRSRILVSIGESFGTSEKFQKINQMVCNSDRVLKRSAEGSNPPKPLKKLRFDIEGSDEADGSKHLPGESKFQQKLAEMTSTRTRMQKQKMNDSMDTSNKEEK
modifications: lentiviral expression
notes: human Rb gene over-expressed from a lentiviral expression vector
suppression / reduction in the frequency of iPSC induction (IMR90 cells; OSNL lentiviral cocktail): about 50%

B3: dominant negative caspase 3 (C163A): dominant negative form of caspase 3 with single mutation C163A, lentiviral vector encoded (protein, UniProt P42574 1-277, looked up, variant C163A)
chain: MENTENSVDSKSIKNLEPKIIHGSESMDSGISLDNSYKMDYPEMGLCIIINNKNFHKSTGMTSRSGTDVDAANLRETFRNLKYEVRNKNDLTREEIVELMRDVSKEDHSKRSSFVCVLLSHGEEGIIFGTNGPVDLKKITNFFRGDRCRSLTGKPKLFIIQAARGTELDCGIETDSGVDDDMACHKIPVEADFLYAYSTAPGYYSWRNSKDGSWFIQSLCAMLKQYADKLEFMHILTRVNRKVATEFESFSFDATFHAKKQIPCIVSMLTKELYFYH
modifications: full-length lentiviral vector encoded
notes: dominant negative form of caspase 3 with single mutation C163A, lentiviral vector encoded
suppression / reduction in the frequency of iPSC induction (IMR90 cells; OSNL lentiviral cocktail): about 80%

B4: shRNA targeted to caspase 1: lentiviral vector-encoded shRNA against human caspase 1, Open Biosystems (nucleic acid)
DNA: TGCTGTTGACAGTGAGCGCGCAATCTTTAACATGTTGAATTAGTGAAGCCACAGATGTAATTCAACATGTTAAAGATTGCATGCCTACTGCCTCGGA
modifications: the letters are possibly those of the target site
notes: lentiviral vector-encoded shRNA against human caspase 1, Open Biosystems
suppression / reduction in the frequency of iPSC induction (IMR90 cells; OSNL lentiviral cocktail): no significant effect

B5: shRNA targeted to Rb: lentiviral vector-encoded shRNA against human Rb, Open Biosystems (nucleic acid)
DNA: TGCTGTTGACAGTGAGCGCGGATATAGGATACATCTTTAATAGTGAAGCCACAGATGTATTAAAGATGTATCCTATATCCTTGCCTACTGCCTCGGA
modifications: the letters are possibly those of the target site
notes: lentiviral vector-encoded shRNA against human Rb, Open Biosystems
increase in frequency of OSNL-induced iPSC formation (IMR90 cells): almost doubled
